According to patent US7294753:

Key:
CD80 = CD80 (UniProt P33681); assay: comparator antibody, sub-head 'Kd'; method and antigen not stated
CD23 = CD23 (UniProt P06734); assay: as above
[1] = biological target: human macrophage migration inhibitory factor (MIF) (human) (UniProt P14174); assay: cell-based or functional assay
human macrophage migration inhibitory factor (MIF) (human), sequence (P14174 2-115 limits assumed): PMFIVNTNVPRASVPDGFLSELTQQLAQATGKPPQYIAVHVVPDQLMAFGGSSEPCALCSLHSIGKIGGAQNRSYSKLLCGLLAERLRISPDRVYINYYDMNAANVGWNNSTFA

CD80, sequence (P33681 35-242 limits assumed): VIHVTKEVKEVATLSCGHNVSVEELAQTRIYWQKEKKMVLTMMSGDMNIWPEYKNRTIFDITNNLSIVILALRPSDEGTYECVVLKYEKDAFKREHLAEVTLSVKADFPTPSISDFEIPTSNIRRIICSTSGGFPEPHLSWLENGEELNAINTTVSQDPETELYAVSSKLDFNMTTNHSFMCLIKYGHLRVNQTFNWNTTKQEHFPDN
CD23, sequence (P06734 48-321 limits assumed): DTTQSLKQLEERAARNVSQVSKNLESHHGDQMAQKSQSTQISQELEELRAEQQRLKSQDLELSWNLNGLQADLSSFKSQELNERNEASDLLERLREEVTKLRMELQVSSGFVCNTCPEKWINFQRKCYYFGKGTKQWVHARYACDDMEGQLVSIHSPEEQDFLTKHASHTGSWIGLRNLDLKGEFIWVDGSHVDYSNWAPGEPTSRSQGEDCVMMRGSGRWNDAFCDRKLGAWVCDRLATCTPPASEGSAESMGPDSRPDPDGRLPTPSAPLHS

For IDEC-114 (anti-CD80 mab) (antibody), the Kd (CD80) was 2.2 nM.
For IDEC-152 (anti-CD23 mab) (antibody), the Kd (CD23) was 1.2 nM.
With 2B8 (murine anti-CD20 Mab) (antibody) the % MIF PPT Activity [1] was 105%.
